Usually Kd stands for the free concentration of one partner at which half of the binding sites on the other are occupied at equilibrium, for simple one-to-one binding.

Kd data for eight molecules are collected here from PMC7192616.

What all share (experiment): ITC
In general terms: ITC needs no label: the signal is the heat of the interaction.

The target in data set [1] is T1, mRBM20(513-621) (Mus musculus, UniProt Q3UQS8 513-621).
T1 sequence: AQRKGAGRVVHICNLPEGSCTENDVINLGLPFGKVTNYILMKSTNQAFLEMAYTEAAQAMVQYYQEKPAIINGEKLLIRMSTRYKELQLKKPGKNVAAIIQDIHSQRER

Data set [2] concerns the target T2, mRBM20(513-621) Q577A (Mus musculus, UniProt Q3UQS8 513-621, Q577A).
T2 sequence: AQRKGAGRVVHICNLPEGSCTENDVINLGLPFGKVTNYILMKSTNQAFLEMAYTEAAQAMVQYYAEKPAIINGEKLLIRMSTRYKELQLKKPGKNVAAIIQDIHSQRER

The target of data set [3] is T3, mRBM20(513-621) N526A (Mus musculus, UniProt Q3UQS8 513-621, N526A).
T3 sequence: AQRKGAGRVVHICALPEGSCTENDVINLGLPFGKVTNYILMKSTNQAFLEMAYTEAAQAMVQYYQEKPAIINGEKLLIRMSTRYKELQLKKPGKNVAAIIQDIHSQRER

Data set [4] deals with T4, mRBM20(513-621) H523A (Mus musculus, UniProt Q3UQS8 513-621, H523A).
T4 sequence: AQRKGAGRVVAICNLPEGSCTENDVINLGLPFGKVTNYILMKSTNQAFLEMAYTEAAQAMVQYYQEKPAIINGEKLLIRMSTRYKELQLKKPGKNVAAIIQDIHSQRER

In data set [5] the target is T5, mRBM20(513-621) Q558A (Mus musculus, UniProt Q3UQS8 513-621, Q558A).
T5 sequence: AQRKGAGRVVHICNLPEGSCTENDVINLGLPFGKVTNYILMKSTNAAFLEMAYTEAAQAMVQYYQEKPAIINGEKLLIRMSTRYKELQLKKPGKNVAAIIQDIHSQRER

Data set [6] concerns the target T6, mRBM20(513-649) +RS (Mus musculus, UniProt Q3UQS8 513-649).
T6 sequence: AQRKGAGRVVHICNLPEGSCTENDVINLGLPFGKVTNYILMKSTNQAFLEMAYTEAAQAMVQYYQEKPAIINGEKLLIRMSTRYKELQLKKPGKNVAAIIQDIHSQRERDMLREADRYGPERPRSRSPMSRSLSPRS

The target of data set [7] is T7, mRBM20(513-609) delta-alpha3 (Mus musculus, UniProt Q3UQS8 513-609).
T7 sequence: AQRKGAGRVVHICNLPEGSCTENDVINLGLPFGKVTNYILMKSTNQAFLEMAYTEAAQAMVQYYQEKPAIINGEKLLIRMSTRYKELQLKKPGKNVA

Data set [8] deals with T8, mRBM20(513-621) R595M (Mus musculus, UniProt Q3UQS8 513-621, R595M).
T8 sequence: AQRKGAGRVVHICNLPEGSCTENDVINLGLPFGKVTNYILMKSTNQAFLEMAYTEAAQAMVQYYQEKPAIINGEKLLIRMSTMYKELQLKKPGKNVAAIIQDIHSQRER

For data set [9], the target named is T9, mRBM20(513-621) R591M (Mus musculus, UniProt Q3UQS8 513-621, R591M).
T9 sequence: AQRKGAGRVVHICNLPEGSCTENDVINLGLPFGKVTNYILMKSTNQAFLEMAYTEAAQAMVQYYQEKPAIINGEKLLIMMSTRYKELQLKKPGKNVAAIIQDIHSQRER

For data set [10], the target named is T10, mRBM20(513-621) V537I (Mus musculus, UniProt Q3UQS8 513-621, V537I).
T10 sequence: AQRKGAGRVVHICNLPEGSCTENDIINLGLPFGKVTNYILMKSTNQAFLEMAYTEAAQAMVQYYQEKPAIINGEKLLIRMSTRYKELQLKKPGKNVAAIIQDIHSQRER

Data set [11] has as its target T11, mRBM20(513-621) Y596A (Mus musculus, UniProt Q3UQS8 513-621, Y596A).
T11 sequence: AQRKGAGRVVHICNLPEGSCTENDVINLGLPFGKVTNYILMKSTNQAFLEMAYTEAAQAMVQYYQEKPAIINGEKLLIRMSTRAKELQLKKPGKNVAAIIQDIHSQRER

Data set [12] deals with T12, mRBM20(513-621) F560A (Mus musculus, UniProt Q3UQS8 513-621, F560A).
T12 sequence: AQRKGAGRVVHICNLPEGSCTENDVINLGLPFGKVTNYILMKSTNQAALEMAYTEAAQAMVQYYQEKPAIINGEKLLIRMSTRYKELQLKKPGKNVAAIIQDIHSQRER

B1: AUCUUA (ssRNA)
RNA: AUCUUA
With B1, the Kd in data set [1] is 5.7 ± 0.2 µM; in [2], 6.6 ± 0.8 µM; in data set [3] it was 9 ± 1 µM; in data set [4] it was 67 ± 12 µM; in data set [5], 3.4 ± 0.7 µM; in data set [6], 4.3 ± 0.4 µM. In addition, the dissociation constant Kd in [7] was determined as 43 ± 1 µM; in [8], 29.3 ± 0.3 µM; in [9], 12.4 ± 0.6 µM; in [10], 10.3 ± 0.7 µM; in [11] it was 74 ± 13 µM; in [12], 156 ± 6 µM.

B2: vIRES-SL (structured_RNA)
RNA: GGGACCUGGUCUUUCCAGGUCCC
As for B2, the Kd in [1] was found to be 8 ± 1 µM.

B3: ACCUUA (ssRNA)
RNA: ACCUUA
In turn, B3 yielded a Kd in data set [1] of 13 ± 2 µM.

B4: AUUUUA (ssRNA)
RNA: AUUUUA
On to B4, for which, in data set [1], the equilibrium dissociation constant (Kd) stood at 140 ± 30 µM.

B5: GUCUUA (ssRNA)
RNA: GUCUUA
B5 came in with a Kd in [1] of 4 ± 0.1 µM.

B6: AUCUUG (ssRNA)
RNA: AUCUUG
The molecule B6 showed a Kd in [1] of 4.8 ± 0.1 µM.

B7: AUCCUA (ssRNA)
RNA: AUCCUA
For the molecule B7, the affinity in data set [1], expressed as Kd, was 210 ± 3 µM.

B8: AUCUCA (ssRNA)
RNA: AUCUCA
On to B8, for which the Kd in [1] came out at 95 ± 1 µM.
